Test results taken from patent US20140178854A1.

Legend:
[1] = biological target: gp70 env protein of amphotropic MLV (4070A envelope), on purified viral particles (amphotropic murine leukemia virus (4070A envelope)); experiment: ELISA on plate-bound MLV, dilution factor 1250, Exp074-DTV Plate 2
[2] = biological target: gp70 env protein of amphotropic MLV (4070A envelope), on purified viral particles (amphotropic murine leukemia virus (4070A envelope)); experiment: ELISA on plate-bound MLV, dilution factor 156250, Exp072-DTV Plate 2
[3] = biological target: gp70 env protein of amphotropic MLV (4070A envelope), on purified viral particles (amphotropic murine leukemia virus (4070A envelope)); experiment: ELISA on plate-bound MLV, dilution factor 156250, Exp121-Ana Plate 2
[4] = biological target: gp70 env protein of amphotropic MLV (4070A envelope), on purified viral particles (amphotropic murine leukemia virus (4070A envelope)); experiment: ELISA on plate-bound MLV, dilution factor 781250, Exp074-DTV Plate 1
[5] = biological target: gp70 env protein of amphotropic MLV (4070A envelope), on purified viral particles (amphotropic murine leukemia virus (4070A envelope)); experiment: ELISA on plate-bound MLV, dilution factor 156250, Exp074-DTV Plate 2
[6] = biological target: gp70 env protein of amphotropic MLV (4070A envelope), on purified viral particles (amphotropic murine leukemia virus (4070A envelope)); experiment: ELISA on plate-bound MLV, dilution factor 781250, Exp121-Ana Plate 1
[7] = biological target: gp70 env protein of amphotropic MLV (4070A envelope), on purified viral particles (amphotropic murine leukemia virus (4070A envelope)); experiment: ELISA on plate-bound MLV, dilution factor 31250, Exp122-Ana Plate 1
[8] = biological target: gp70 env protein of amphotropic MLV (4070A envelope), on purified viral particles (amphotropic murine leukemia virus (4070A envelope)); experiment: ELISA on plate-bound MLV, dilution factor 781250, Exp074-DTV Plate 2
[9] = biological target: gp70 env protein of amphotropic MLV (4070A envelope), on purified viral particles (amphotropic murine leukemia virus (4070A envelope)); experiment: ELISA on plate-bound MLV, dilution factor 50, Exp074-DTV Plate 2
[10] = biological target: gp70 env protein of amphotropic MLV (4070A envelope), on purified viral particles (amphotropic murine leukemia virus (4070A envelope)); experiment: ELISA on plate-bound MLV, dilution factor 156250, Exp122-Ana Plate 2
[11] = biological target: gp70 env protein of amphotropic MLV (4070A envelope), on purified viral particles (amphotropic murine leukemia virus (4070A envelope)); experiment: ELISA on plate-bound MLV, dilution factor 1250, Exp121-Ana Plate 2
[12] = biological target: gp70 env protein of amphotropic MLV (4070A envelope), on purified viral particles (amphotropic murine leukemia virus (4070A envelope)); experiment: ELISA on plate-bound MLV, dilution factor 10, Exp073-DTV Plate 2
[13] = biological target: gp70 env protein of amphotropic MLV (4070A envelope), on purified viral particles (amphotropic murine leukemia virus (4070A envelope)); experiment: ELISA on plate-bound MLV, dilution factor 31250, Exp125-Ana Plate 1
[14] = biological target: gp70 env protein of amphotropic MLV (4070A envelope), on purified viral particles (amphotropic murine leukemia virus (4070A envelope)); experiment: ELISA on plate-bound MLV, dilution factor 6250, Exp125-Ana Plate 2
[15] = biological target: gp70 env protein of amphotropic MLV (4070A envelope), on purified viral particles (amphotropic murine leukemia virus (4070A envelope)); experiment: ELISA on plate-bound MLV, dilution factor 31250, Exp121-Ana Plate 2
[16] = biological target: gp70 env protein of amphotropic MLV (4070A envelope), on purified viral particles (amphotropic murine leukemia virus (4070A envelope)); experiment: ELISA on plate-bound MLV, dilution factor 250, Exp122-Ana Plate 1
[17] = biological target: gp70 env protein of amphotropic MLV (4070A envelope), on purified viral particles (amphotropic murine leukemia virus (4070A envelope)); experiment: ELISA on plate-bound MLV, dilution factor 781250, Exp125-Ana Plate 2
[18] = biological target: gp70 env protein of amphotropic MLV (4070A envelope), on purified viral particles (amphotropic murine leukemia virus (4070A envelope)); experiment: ELISA on plate-bound MLV, dilution factor 1250, Exp072-DTV Plate 1
[19] = biological target: gp70 env protein of amphotropic MLV (4070A envelope), on purified viral particles (amphotropic murine leukemia virus (4070A envelope)); experiment: ELISA on plate-bound MLV, dilution factor 1250, Exp125-Ana Plate 2
[20] = biological target: gp70 env protein of amphotropic MLV (4070A envelope), on purified viral particles (amphotropic murine leukemia virus (4070A envelope)); experiment: ELISA on plate-bound MLV, dilution factor 250, Exp125-Ana Plate 1
[21] = biological target: gp70 env protein of amphotropic MLV (4070A envelope), on purified viral particles (amphotropic murine leukemia virus (4070A envelope)); experiment: ELISA on plate-bound MLV, dilution factor 10, Exp072-DTV Plate 2
[22] = biological target: gp70 env protein of amphotropic MLV (4070A envelope), on purified viral particles (amphotropic murine leukemia virus (4070A envelope)); experiment: ELISA on plate-bound MLV, dilution factor 6250, Exp121-Ana Plate 1
[23] = biological target: gp70 env protein of amphotropic MLV (4070A envelope), on purified viral particles (amphotropic murine leukemia virus (4070A envelope)); experiment: ELISA on plate-bound MLV, dilution factor 50, Exp122-Ana Plate 1
[24] = biological target: gp70 env protein of amphotropic MLV (4070A envelope), on purified viral particles (amphotropic murine leukemia virus (4070A envelope)); experiment: ELISA on plate-bound MLV, dilution factor 50, Exp125-Ana Plate 1
[25] = biological target: gp70 env protein of amphotropic MLV (4070A envelope), on purified viral particles (amphotropic murine leukemia virus (4070A envelope)); experiment: ELISA on plate-bound MLV, dilution factor 156250, inter-assay mean of six experiments
[26] = biological target: gp70 env protein of amphotropic MLV (4070A envelope), on purified viral particles (amphotropic murine leukemia virus (4070A envelope)); experiment: ELISA on plate-bound MLV, dilution factor 1250, Exp122-Ana Plate 2

Sequence of gp70 env protein of amphotropic MLV (4070A envelope), on purified viral particles (amphotropic murine leukemia virus (4070A envelope)) (P21995 whole entry): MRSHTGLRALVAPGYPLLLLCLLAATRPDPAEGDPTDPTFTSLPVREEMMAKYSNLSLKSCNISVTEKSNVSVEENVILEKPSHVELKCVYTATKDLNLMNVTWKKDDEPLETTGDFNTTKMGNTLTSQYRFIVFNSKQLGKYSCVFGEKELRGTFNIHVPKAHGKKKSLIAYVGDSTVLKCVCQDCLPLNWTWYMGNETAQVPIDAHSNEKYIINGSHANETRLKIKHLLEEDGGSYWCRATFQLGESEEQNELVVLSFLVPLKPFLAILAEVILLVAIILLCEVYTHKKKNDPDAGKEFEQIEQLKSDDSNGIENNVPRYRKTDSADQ

“83A25 monoclonal antibody (rat IgG2a, anti-gp70)” showed a Mean OD [1] of 1.39 OD, a Mean OD [2] of 0.119 OD and a Mean OD [3] of 0.159 OD. For the same substance, the Mean OD [4] was 0.114 OD, the Mean OD [5] was 0.131 OD and the Mean OD [6] was 0.137 OD. For the same substance, the Mean OD [7] was 0.289 OD, the Mean OD [8] was 0.107 OD and the Mean OD [9] was 2.14 OD. For the same substance, the Mean OD [10] was 0.174 OD, the Mean OD [11] was 1.84 OD and the Mean OD [12] was 2.48 OD. For the same substance, the Mean OD [13] was 0.235 OD, the Mean OD [14] was 0.635 OD and the Mean OD [15] was 0.276 OD. It also gave a Mean OD [16] of 1.86 OD, a Mean OD [17] of 0.105 OD and a Mean OD [18] of 1.3 OD. The Mean OD [19] was 1.44 OD, the Mean OD [20] was 1.85 OD and the Mean OD [21] was 2.04 OD. The Mean OD [22] was 0.903 OD, the Mean OD [23] was 2.01 OD and the Mean OD [24] was 1.99 OD. For the same substance, the Mean OD (inter-assay mean) [25] was 0.144 OD and the Mean OD [26] was 1.4 OD.
